# Reference: PMC3305458, “E2F1 Mediated Apoptosis Induced by the DNA Damage Response Is Blocked by EBV Nuclear Antigen 3C in Lymphoblastoid Cells” (PLoS Pathogens, 2012)
# Molecular target: flag-tagged wild-type E2F1 (residues 1–437) (UniProt Q01094 1-437)
# Test: cell-based or functional assay
# Chain of flag-tagged wild-type E2F1 (residues 1–437) (Q01094 whole entry, the tested form may be a part): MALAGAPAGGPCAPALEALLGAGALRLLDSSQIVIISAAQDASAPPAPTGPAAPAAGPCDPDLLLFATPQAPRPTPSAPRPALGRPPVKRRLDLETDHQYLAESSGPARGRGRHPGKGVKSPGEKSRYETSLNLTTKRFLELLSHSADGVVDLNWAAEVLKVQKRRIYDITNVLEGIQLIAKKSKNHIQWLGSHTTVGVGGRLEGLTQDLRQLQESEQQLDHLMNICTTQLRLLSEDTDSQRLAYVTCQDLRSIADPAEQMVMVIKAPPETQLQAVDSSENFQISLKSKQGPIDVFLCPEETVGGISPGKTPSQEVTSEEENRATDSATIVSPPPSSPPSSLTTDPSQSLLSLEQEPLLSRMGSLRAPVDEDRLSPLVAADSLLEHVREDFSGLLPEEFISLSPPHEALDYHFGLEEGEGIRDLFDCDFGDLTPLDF
binder,measurement,value
myc-tagged EBNA3C (residues 1–992) (natural protein) MESFEGQGDSRQSPDNERGDNVQTTGEHDQDPGPGPPSSGASERLVPEESYSRDQQPWGQSRGDENRGWMQRIRRRRRRRAALSGHLLDTEDNVPPWLPPHDITPYTARNIRDAACRAVKQSHLQALSNLILDSGLDTQHILCFVMAARQRLQDIRRGPLVAEGGVGWRHWLLTSPSQSWPMGYRTATLRTLTPVPNRVGADSIMLTATFGCQNAARTLNTFSATVWTPPHAGPREQERYAREAEVRFLRGKWQRRYRRIYDLIELCGSLHHIWQNLLQTEENLLDFVRFMGVMSSCNNPAVNYWFHKTIGNFKPYYPWNAPPNENPYHARRGIKEHVIQNAFRKAQIQGLSMLATGGEPRGDATSETSSDEDTGRQGSDVELESSDDELPYIDPNMEPVQQRPVMFVSRVPAKKPRKLPWPTPKTHPVKRTNVKTSDRSDKAEAQSTPERPGPSEQSSVTVEPAHPTPVEMPMVILHQPPPVPKPVPVKPTPPPSRRRRGACVVYDDDVIEVIDVETTEDSSSVSQPNKPHRKHQDGFQRSGRRQKRAAPPTVSPSDTGPPAVGPPAAGPPAAGPPAAGPPAAGPPAAGPPAAGPRILAPLSAGPPAAGPHIVTPPSARPRIMAPPVVRMFMRERQLPQSTGRKPQCFWEMRAGREITQMQQEPSSHLQSATQPTTPRPSWAPSVCALSVMDAGKAQPIESSHLSSMSPTQPISHEEQPRYEDPDAPLDLSLHPDVAAQPAPQAPYQGYQEPPAPQAPYQGYQEPPPPQAPYQGYQEPPAHGLQSSSYPGYAGPWTPRSQHPCYRHPWAPWSQDPVHGHTQGPWDPRAPHLPPQWDGSAGHGQDQVSQFPHLQSETGPPRLQLSLVPLVSSSAPSWSSPQPRAPIRPIPTRFPPPPMPLQDSMAVGCDSSGTACPSMPFASDYSQGAFTPLDINATTPKRPRVEESSHGPARCSQATAEAQEILSDNSEISVFPKDAKQTDYDASTESELD,"proliferation of G418-selected Saos-2 cells after serum starvation and 5 µM etoposide, counted for 6 days: E2F1 plus EBNA3C against E2F1 alone or E2F1 plus EBNA3C residues 366-620",~4 fold
